In publication PMC5428233, “Cross-beta nanostructures based on dinaphthylalanine Gd-conjugates loaded with doxorubicin” (Scientific Reports, 2017):
Where a SMILES comes first, the peptide text is derived from it. [ ]: non-standard residue; d: D form. The star is where a group is joined. DOTA = O=C(O)CN1CCN(CC(=O)O)CCN(CC(=O)*)CCN(CC(=O)O)CC1; 2Nal = N[C@@H](Cc1ccc2ccccc2c1)C(=O)O; PEG6 = NCCOCCOCCOCCOCCOCCOCCC(=O)O

Columns and labels:
[1] = Self-aggregation by intrinsic naphthyl fluorescence (intensity decrease, excimer peak); type: physicochemical; conditions: water, room temperature, excitation 280 nm
Method: (§1) Self-organization of the peptide conjugates at the atomic level was further characterized also in solution with fluorescence, UV-Vis, ^1HNMR, CD and FTIR spectroscopies. […] From ispection of Fig. 1b, the typical emission spectrum of the 2-naphthyl group with three maxima at 325, 340 and 355 nm, respectively, can be detected.
(§2) The determination of CAC (critical aggregate concentration) values was determined as previously described[6] by the titration of the fluorescent probe ANS (8-anilino-1-naphthalene sulfonic acid ammonium salt)[28], [29] with the peptide conjugates[30].

[2] = Critical aggregation concentration (CAC) by ANS fluorescence titration; type: physicochemical; conditions: ANS 20 μM titrated with conjugate, emission at 470 nm, graphical break-point (Figure S3)
Method: as §1, §2

[3] = Congo Red spectroscopic (UV-Vis) assay for amyloid-like fibrils; type: physicochemical; conditions: 30 min at room temperature
Method: The high tendency of Gd-2Nal2 to self-aggregate in amyloid-like fibrillary nanostructures in solution was confirmed by Congo Red (CR) staining assay. CR is a well-known azoic dye, used as indicator of the occurrence of amyloid like fibrils. […] When incubated with fibrillary aggregates, its spectral profile changes and a shift of the CR band from 490 to 540 nm is expected. In our experiment, depicted in Fig. 3b, CR UV-Vis maximum undergoes a clear shift after incubation with Gd-2Nal2 at 2.5 mg/mL. Instead, any variation or a slight shift can be evidenced for CR incubated with 0.1 and 1.0 mg/mL, respectively.
Congo Red (CR) UV-Vis assay was carried out on aforementioned spectrophotometer as previously described. Briefly, 5, 50 and 125 μL of di-naphthylalanine stock solution (20 mg/mL) were added to a CR solution (12, 5 μM) prepared immediately before to use. The solutions containing peptide conjugate incubated with CR were left at room temperature for 30 min and then their UV-Vis spectra were recorded between 400 and 700 nm. The spectrum of CR alone at the same concentration was also recorded in the this spectral region.

[4] = Transmission electron microscopy of self-assembled conjugates; type: physicochemical; conditions: 5.0 mg/mL solution dried on grid, phosphotungstic acid stain
Method: Self-assembled peptide conjugate at 5.0 mg/mL, as free base or as metal complex, was initially characterized using TEM. […] The presence of a diffraction pattern both in SAXS and in WAXS is fingerprint of a hierarchical organization of the molecules in fibers from the atomic to the nanoscale.
TEM images were acquired by LaMest (Pozzuoli, Italy) with a FEI TECNAI G12 Spirit-Twin microscope (LaB6 source) endowed of a bottom mounted FEI Eagle-4k CCD camera (Eindhoven, The Netherlands), working at 120 kV.

[5] = Water proton relaxation measurements / NMRD profiles; type: physicochemical; conditions: 298 K
Excerpt: The paramagnetic relaxivity (r1p) of Gd (III) complexes is given by:1 r1p∝1/T1MH=Kf(τR) where K is a constant related to the strength of the dipolar interaction between the protons and the electronic magnetic moment, and τR is the correlation time associated with the reorientation of the Gd-H magnetic vector. This means that slowly moving high molecular weight systems are endowed with higher relaxivity than rapidly reorienting low molecular weight ones. In the case of self assembling Gd-containing systems, the extent of aggregation may be evaluated through the measure of the water proton longitudinal relaxation rate of its aqueous solution. In Fig. 8 are reported the NMRD (Nuclear Magnetic Resonance Dispersion) profiles of Gd-2Nal2 acquired at 21.5 MHz (0.5 T) and 298 K as a function of the complex concentration. […] At concentrations higher than 10–15 mg/mL the relaxivity assumes an almost stable value which corresponds to the system in the completely aggregated form. By analyzing the profile of the relaxivity data as a function of the applied field strength (NMRD - Nuclear Magnetic Relaxation Dispersion) it is possible to obtain an accurate determination of the reorientational correlation time (τR)[16], that is strictly related to the molecular size of the investigated system. NMRD profiles were acquired below (black circles) and above (white ones) the CAC values determined by ANS titration and ^1HNMR. […] Data were analyzed using the Solomon-Bloembergen-Morgan model, [18], considering one water molecule in the inner coordination sphere (q = 1) and fixing the exchange lifetime (τM) to a reliable value ([…]) on the basis of those previously reported for mono-amido DOTA derivatives[19]–[22]. The quantitative analysis of the NMRD profile of the aggregated form was not satisfactory when the simple inner- outer-sphere model was used, so the Lipari-Szabo approach was used for the description of the rotational dynamics. This model allows one to take into account the presence ofa certain degree of internal rotation superimposed on the overall tumbling motion, [24]. These two types ofmotion, a relatively fast local rotation of the coordination cage about the linker to the peptide scaffold superimposed on the global reorientation of the system, are characterized by different correlation times: τR ^l and τR ^g, respectively. The degree of correlation between global and local rotations is given by the parameter S^2, which takes values between 0 (completely independent motions) and 1 (entirely correlated motions).
Measure of R1 (longitudinal water proton relaxation rates) of Gd-2Nal2 were carried out on a Stelar Spinmaster spectrometer (Pavia, Italy) operating at 0.5 T which corresponds to 21.5 MHz Proton Larmor Frequency. R1 (1/T1) values were measured at 298 K by mean of the standard inversion-recovery technique. For the measure of the proton 1/T1 NMRD (Nuclear Magnetic Resonance Dispersion) profiles, a fast field-cycling Stelar relaxometer, operating over a continuum of magnetic field strengths from 0.00024 to 0.47 T (corresponding to 0.01–20 MHz proton Larmor frequencies) was used. The temperature was set at 298 K. The relaxometer is computer controlled and the absolute uncertainty is 1/T1 ± 1%. Additional data points were obtained on a Stelar Spinmaster spectrometer coupled to an electromagnet tunable at different Larmor Frequencies between 21.5 and 70 MHz. Experimental temperature control was obtained with an air-flow heater (Stelar VTC-91) endowed of a copper constantan thermocouple (uncertainty 0.1 °C). A previously reported relaxometric method[39] was used for the determination of the concentrations of the solutions used for the relaxometric characterization. The conventional Solomon-Bloembergen-Morgan theory was used for fitting of experimental data.

[6] = Doxorubicin loading and leakage by fluorescence spectroscopy; type: physicochemical
Excerpt: In order to prepare a potential theranostic agent, we assayed to incorporate cytotoxic doxorubicin (DOX) model drug in the Gd-2Nal2 paramagnetic nanostructures. DOX is an established anticancer agent clinically effective for the treatment of many cancertypes (breast and ovarian cancers). The incorporation and release of DOX into nanostructures was estimated by fluorescence spectroscopy (Figures S7 and S8). The addition of increasing amounts of the peptide conjugate to the DOX solution causes a progressive decrease of the fluorescence intensity of DOX (Figure S7a). […] By plotting the fluorescence intensity in the maximum at 590 nm as function of the Gd-2Nal2 concentration (Figure S7b) we estimated that gDrug/gPeptide is 0.028 (∼60 μg of DOX for ∼2.0 mg of peptide). […]
A DOX solution (1 · 10^−4 M) was placed in the cuvette and titrated with small amount of Gd-2Nal2 peptide conjugate at 50 mg/mL. The fluorescence of each sample was monitored on Jasco Model FP-750 spectroflurophotometer as above described. […] At the end of the titration the DOX filled Gd-2Nal2 aggregates were 10-fold diluted and the DOX fluorescence was monitored up to 72 h. […]
Figure S7: A) Fluorescence spectra of 1·10^-4 M DOX (58 μg/mL) solution alone and after the addition of growing amounts of Gd-2Nal2 peptide conjugate (from 0.25 to 10.0 mg/mL). […]

[7] = water
[8] = water, temperature below 5 °C

NC(=O)[C@H](Cc1ccc2ccccc2c1)NC(=O)[C@H](Cc1ccc2ccccc2c1)NC(=O)CCOCCOCCOCCOCCOCCOCCNC(=O)CN1CCN(CC(=O)O)CCN(CC(=O)O)CCN(CC(=O)O)CC1 [Gd-2Nal2, Gd-DOTA-L6-(2Nal)2] ({DOTA-PEG6}-[2Nal]-[2Nal]-NH2)
concentration at which self-aggregation begins (decrease of fluorescence intensity) [1]: ~75 µM
concentration of appearance of the excimer peak (380-430 nm) / formation of stable aggregates [1]: ~1000 µg/mL
concentration at which self-aggregation begins (decrease of fluorescence intensity) ([1]; 0.025-20.0 mg/mL range): ~100 µg/mL
critical aggregation concentration (CAC) [2]: ~0.86 mg/mL
shift of Congo Red UV-Vis maximum (490 to 540 nm expected for fibrils) ([3]; conjugate at 1.0 mg/mL): slight shift
shift of Congo Red UV-Vis maximum (490 to 540 nm expected for fibrils) ([3]; conjugate at 2.5 mg/mL): clear shift
supramolecular aggregation / morphology in TEM images [4]: long fibrillary nanostructures
aggregation state from NMRD profile and τR ([5]; 1 mg/mL): monomeric state
aggregation state from NMRD profile and τR ([5]; 25.0 mg/mL (high concentration)): formation of aggregates
concentration above which relaxivity assumes an almost stable value (completely aggregated form) ([5]; 21.5 MHz (0.5 T), water): 10000 to 15000 µg/mL
concentration at which self-aggregation starts (enhancement in relaxivity) ([5]; 21.5 MHz (0.5 T), water): ca. 1.0 mg/mL
r1p (longitudinal proton relaxivity) ([5]; complex at 1 mg/mL, aqueous solution): 7.3 mM⁻¹ s⁻¹
doxorubicin loading, gDrug/gPeptide ([6]; DOX 1·10^−4 M titrated with Gd-2Nal2 (50 mg/mL stock), fluorescence at 590 nm, excitation 480 nm): 0.028
DOX leakage (drug released) from the peptide aggregate ([6]; DOX filled aggregates 10-fold diluted, fluorescence monitored, after 72 h): ~6%
solubility [7]: ≥ 50 mg/mL
concentration at which fast hydrogel formation occurs [8]: 20000 µg/mL
